In patent US20020061546:

Tests used:
[1] = tested on: GFP N-terminal phosphorylation mutant 1MRKGSCLF; details: scale: relative to the endogenous site HKFSV of Aequorea GFP
[2] = tested on: GFP N-terminal phosphorylation mutant 1MRKGSLLF; details: scale: relative to the endogenous site HKFSV of Aequorea GFP
[3] = tested on: GFP N-terminal phosphorylation mutant 1MRRDSCLF; details: scale: relative to the endogenous site HKFSV of Aequorea GFP
[4] = tested on: GFP N-terminal phosphorylation mutant 1MRRESLLF; details: scale: relative to the endogenous site HKFSV of Aequorea GFP
[5] = tested on: GFP N-terminal phosphorylation mutant 1MSKRRDSL; details: scale: relative to the endogenous site HKFSV of Aequorea GFP
[6] = tested on: GFP N-terminal phosphorylation mutant 1MSRRDSCF; details: scale: relative to the endogenous site HKFSV of Aequorea GFP
[7] = tested on: GFP phosphorylation mutant 155KRKSGI; details: scale: relative to the endogenous site HKFSV of Aequorea GFP
[8] = tested on: GFP phosphorylation mutant 172RRGSV; details: scale: relative to the endogenous site HKFSV of Aequorea GFP
[9] = tested on: GFP phosphorylation mutant 214KRDSM
[10] = tested on: GFP phosphorylation mutant 25RRFSV; details: scale: relative to the endogenous site HKFSV of Aequorea GFP
[11] = tested on: GFP phosphorylation mutant 68RRFSA; details: scale: relative to the endogenous site HKFSV of Aequorea GFP
[12] = tested on: wild type Aequorea green fluorescent protein
[13] = scale: relative to the endogenous site HKFSV of Aequorea GFP

protein kinase A catalytic subunit gave a Relative rates of phosphorylation [1] of 5.1, a Relative rates of phosphorylation [2] of 1.6 and a Relative rates of phosphorylation [3] of 3.7. It also gave a Relative rates of phosphorylation [4] of 3, a Relative rates of phosphorylation [5] of 5.5 and a Relative rates of phosphorylation [6] of 2.1. For the same substance, the Relative rates of phosphorylation [7] was 2.5, the Relative rates of phosphorylation [8] was 1.57 and the “kinetics of phosphorylation using gamma-32P-labeled ATP” value [9] was “the site is poorly phosphorylated by protein kinase A”. For the same substance, the Relative rates of phosphorylation [9, 13] was 1.88, the Relative rates of phosphorylation [10] was 1.75 and the Relative rates of phosphorylation [11] was 0.6. For the same substance, the phosphorylation in vitro [12] was “can be phosphorylated by protein kinase A in vitro with relatively slow kinetics” and the Relative rates of phosphorylation [12, 13] was 1.
